Results taken from patent US20250382379A1 (VISTERRA, published 2025).
Where a chain is given by its changes, count along the chain named.

What was measured:
[1] = biological target: T1, human CD138 (syndecan-1), membrane-bound on CD138+ multiple myeloma cell lines (human, UniProt P18827 23-310); experiment: flow cytometry on U266 cells, maximal MFI, reference BB4
T1 construct: whole, on cells; also called membrane CD138; cell surface CD138
T1 sequence (looked up): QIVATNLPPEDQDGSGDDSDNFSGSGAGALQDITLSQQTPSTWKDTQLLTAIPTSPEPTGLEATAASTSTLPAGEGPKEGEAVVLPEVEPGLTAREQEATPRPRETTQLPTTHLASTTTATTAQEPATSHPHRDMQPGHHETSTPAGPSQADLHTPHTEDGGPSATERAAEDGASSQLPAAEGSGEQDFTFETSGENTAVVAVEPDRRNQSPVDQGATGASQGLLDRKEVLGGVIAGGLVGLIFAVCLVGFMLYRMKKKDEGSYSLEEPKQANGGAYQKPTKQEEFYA
Protocol: The antibodies were then serially diluted three-fold. Antibody binding to membrane CD138 was evaluated using the CD138+ human lymphoblastic myeloma cell line U266 and quantified by flow cytometry. Antibody cell binding was reported as geometric mean fluorescence intensity (MFI). Binding data were plotted using nonlinear regression analysis and a 4-parameter curve fit.
Antibody cell binding was reported as geometric mean fluorescence intensity (MFI). Binding data were plotted using nonlinear regression analysis and a 4-parameter curve fit.

[2] = biological target: T2, human CD138 derived peptide 2A (integrin binding domain), biotinylated (human, biotinylated (site not stated)); experiment: antigen capture ELISA, antibody coated, biotinylated peptide titrated from 50 nM
T2 construct: also called Pep2a
T2 peptide: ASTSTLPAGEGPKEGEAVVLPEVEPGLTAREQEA
Protocol: (§1) 1 or select human CD138 derived peptides (Table 3) was evaluated by antigen capture ELISA. […] The immobilized monoclonal antibodies were tested for binding to biotinylated recombinant CD138 extracellular domain or peptides 2A, peptide 6A in 5-fold serial antigen dilutions starting at starting at a 50 nM concentration. HRP-conjugated Anti-biotin secondary antibody (1:10000 dilution) was used for detection.

[3] = biological target: T3, human CD138 derived peptide 6A (membrane proximal region), biotinylated (human, biotinylated (site not stated)); experiment: as above
T3 construct: also called Pep6a
T3 peptide: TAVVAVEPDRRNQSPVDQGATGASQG
Protocol: as §1

[4] = biological target: T4, extracellular domain of soluble human CD138 (amino acids 18-251 of SEQ ID NO 1), biotinylated recombinant (human, UniProt P18827 18-251, biotinylated (site not stated)); experiment: antigen capture ELISA, antibody coated, biotinylated CD138 extracellular domain, reference BB4
T4 construct: also called CD138 extracellular domain; soluble extracellular domain of human CD138
T4 sequence: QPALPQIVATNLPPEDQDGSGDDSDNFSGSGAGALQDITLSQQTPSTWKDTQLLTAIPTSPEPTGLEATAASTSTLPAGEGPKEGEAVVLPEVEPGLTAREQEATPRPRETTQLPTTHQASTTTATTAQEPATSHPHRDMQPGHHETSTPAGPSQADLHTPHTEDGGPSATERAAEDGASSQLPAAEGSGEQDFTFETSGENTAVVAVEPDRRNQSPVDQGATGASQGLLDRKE
Protocol: as §1

[5] = biological target: T1, human CD138 (syndecan-1), …; experiment: flow cytometry on MM1.S, LP-1 and RPMI 8226 cells
[6] = biological target: T1, human CD138 (syndecan-1), …; experiment: flow cytometry on U266 cells, geometric MFI

B1: humanized anti-CD138 antibody mAb 4320 (antibody, human IgG1, kappa, V domains shown)
VH: QVQLVQSGAEVKKPGASVKVSCKASGYSFSSYYMHWVRQAPGQGLEWMGTIHPSDSTTNYNQKFQGRVTMTVDTSTRTAYMELSSLRSEDTAVYYCANFVYWGQGTTVTVSS
VL: DIVMTQTPLSLSVTPGQPASISCKSSKSLLYKDGKTYLNWFLQKPGQSPQLLIYVVSTRASGVPDRFSGSGSGTDFTLKISRVEAEDVGVYYCQQLVEYPYTFGQGTKLEIKR
notes: Produced with 2FF in the medium to reduce core fucose of the N297 glycan
Which “total cell surface binding (maximal MFI) relative to antibody BB4” value [1] does the source give for B1 here?
Its value is roughly 25 % greater than BB4.

Does B1 bind [2]?
Result: binds

Does B1 bind [3]?
Result: binds

What about the “fold higher binding affinity in comparison to BB4” value [4] of the same binder?
The value was roughly 6 fold.

B2: humanized anti-CD138 antibody variant 4326 (antibody, human IgG1, V domains shown)
VH: B1 VH
VL: DIVMTQSPDSLAVSLGERATINCKSSQSLLYKDGKTYLNWFQQKPGQPPKLLIYVVSTRASGVPDRFSGSGSGTDFTLTISSLQAEDVAVYYCQQLVEYPYTFGQGTKLEIK
notes: also called mAb 4326
Does B2 bind [5]?
Result: binds

B3: humanized anti-CD138 antibody variant 3821 (antibody, human IgG1, V domains shown)
VH: B1 VH with A16S, T58A, Q65K, M70I, T74K, R77S
VL: DIVMTQTPLSLSVTPGQPASISCKSSKSLLYKDGKTYLNWFLQKPGQSPQLLIYVVSTRASGVPDRFSGSGSGTDFTLKISRVEAEDVGVYYCQQLVQYPYTFGQGTKLEIK
notes: also called mAb 3821
Does B3 bind [5]?
Result: binds

B4: humanized anti-CD138 antibody variant 3820 (antibody, human IgG1, V domains shown)
VH: B1 VH with A16S, T58A, Q65K, M70I, T74K, R77S
VL: B3 VL with Q98E
notes: also called mAb 3820
Does B4 bind [5]?
Result: binds

B5: humanized anti-CD138 antibody variant 4521 (antibody, human IgG1, V domains shown)
VH: B1 VH with S28N, S30A, Q65K, R77S
VL: B3 VL
notes: also called mAb 4521
Does B5 bind [5]?
Result: binds

B6: humanized anti-CD138 antibody variant 4321 (antibody, human IgG1, V domains shown)
VH: B1 VH
VL: B3 VL
notes: also called mAb 4321
Does B6 bind [5]?
Result: binds

B7: mouse chimeric anti-CD138 antibody 2810 (antibody, V domains shown)
VH: QVQLHQPGTSLVKPGASVKLSCKASGYSFSSYYMHWVKQRPGQGLEWIGTIHPSDSTTNYNQKFKGKATLTVDKSSRTAYMQLNSLTFEDSAVYYCANFVYWGQGTSVTVSS
VL: DIVITQDELSNPVTSGDSVSISCRSSKSLLYKDGKTYLNWFLQRPGQSPQLLIYVVSTRASGVSDRFSGSGSGTDFTLEISRVKAEDVGVYYCQQLVEYPYTFGGGTKLEIK
notes: Described as a mouse-human chimeric antibody; also called mAb2810
Does B7 bind [6]?
Result: binds
